{"source": "patent US10385103B2", "about": "“Cell-permeable (ICP)-SOCS3 recombinant protein and uses thereof” (CELLIVERY THERAPEUTICS, INC., priority 2014, dated 2019)", "key": {"[1]": {"tested_on": "STAT3", "assay": "Inhibition of IFN-γ-induced STAT phosphorylation in PANC-1 cells (western blot), STAT3", "type": "cell-based", "method": "(§1) PANC-1 Cells (KCLB, Seoul, South Korea) were treated with 10 ng/ml IFN-γ (R&D systems, Abingdon, UK) for 15 min and treated with either DMEM (vehicle) or 10 μM aMTD/SD-fused SOCS3 recombinant proteins for 2 hrs. The cells were lysed in RIPA lysis buffer (Biosesang, Seongnam, Korea) containing proteinase inhibitor cocktail (Roche, Indianapolis, Ind., USA), incubated for 15 min at 4° C., and centrifuged at 13,000 rpm for 10 min at 4° C. Equal amounts of lysates were separated on 10% SDS-PAGE gels and transferred to a nitrocellulose membrane. The membranes were blocked using 5% skim milk in TBST and for western blot analysis incubated with the following antibodies: anti-phospho-STAT1 (Cell Signaling Technology, USA) and anti-phospho-STAT3 (Cell Signaling Technology, USA), then HRP conjugated anti-rabbit secondary antibody (Santacruz).\nas §1, with “(vehicle) or 1, 5, 10 μM” for “(vehicle) or 10 μM”, “following antibodies: anti-phospho-STAT3 (Cell” for “following antibodies: anti-phospho-STAT1 (Cell Signaling Technology, USA) and anti-phospho-STAT3 (Cell”"}, "[2]": {"tested_on": "NIH3T3 cells", "assay": "Intracellular delivery and localization of FITC-labeled SOCS3 recombinant proteins (confocal microscopy)", "type": "cell-based, mouse", "settings": "10 μM FITC-labeled SOCS3 protein, 1 hour, 37° C.", "method": "(§2) To examine cell-permeability of SOCS3 recombinant protein, SOCS3 recombinant proteins were conjugated to 5/6-fluorescein isothiocyanate (FITC). RAW 264.7 (KCLB, Seoul, South Korea) (FIG. 20) or NIH3T3 cells (KCLB, Seoul, South Korea) (FIG. 21) were treated with 10 μM FITC-labeled SOCS3 recombinant proteins and cultivated for 1 hr at 37° C.\n(§3) After cultivation, the cells were washed three times with ice-cold PBS (Phosphate-buffered saline, Hyclone, USA) and treated with proteinase K (10 μg/mL, SIGMA, USA) to remove surface-bound proteins, and internalized proteins were measured by flow cytometry (FlowJo cytometric analysis software, Guava, Millipore, Darmstadt, Germany). Untreated cells (gray) and equimolar concentration of unconjugated FITC (FITC only, green)-treated cells were served as control (FIG. 20). Each of NIH3T3 cells was incubated for 1 hour at 37° C. with 10 μM FITC-labeled SOCS3 protein. For nuclear staining, a mixture of […] Mounting Medium (Vector laboratories, Burlingame, Calif.) and DAPI (4′,6-diamidino-2-phenylindole) was added to NIH3T3 cells, and visualized using a confocal laser microscope (LSM700, Zeiss, Germany) (FIG. 21)."}, "[3]": {"assay": "Tissue-permeability / systemic delivery of FITC-labeled SOCS3 proteins after intraperitoneal injection", "type": "in vivo, ICR mice", "method": "To further investigate in vivo delivery of SOCS3 recombinant proteins, ICR mice (Doo-Yeol Biotech Co. Ltd., Seoul, Korea) were intraperitoneal (IP) injected with 600 μg/head of 10 μM FITC (Fluorescein isothiocyanate, SIGMA, USA)-labeled SOCS3 proteins and sacrificed after 2 hrs. From the mice, the liver, kidney, spleen, lung, heart, and brain were removed and washed with PBS, and then placed on a dry ice, and embedded with an O.C.T. compound (Sakura). After cryosectioning at 20 μm, tissue distributions of fluorescence-labeled-SOCS3 proteins in different organs was analyzed by fluorescence microscopy (Carl Zeiss, Gottingen, Germany)(FIG. 22).\nThe liver tissue permeability was analyzed by the method described in Example 7-2."}, "[4]": {"tested_on": "Chang cell", "assay": "Cell viability of non-cancer cells, CellTiter-Glo", "type": "cell-based, human", "settings": "10 μM over 4 days", "method": "Cells originated from human hepatocellular carcinoma cell (Hep3B, HepG2, Huh-7, SK-Hep1), human normal cells (HEK293, HaCaT, Chang liver cell) and mouse fibroblast (NIH3T3) were purchased from ATCC (Manassas, Va., USA) and KCLB (Seoul, Korea). All the cells were maintained as recommended by the supplier. These cells (3×10^3/well) were seeded in 96 well plates. The next day, cells were treated with DMEM (vehicle) or 10 μM recombinant SOCS3 proteins for 96 hrs in the presence of serum (2%). Proteins were replaced daily. Cell growth and survival were evaluated with the CellTiter-Glo Cell Viability Assay (Promega, Madison, Wis.). Measurements using a Luminometer (Turner Designs, Sunnyvale, Calif.) were conducted following the manufacturer's protocol."}, "[5]": {"tested_on": "HepG2 tumor", "assay": "Anti-tumor activity in cell-derived xenograft model", "settings": "for inhibition on the tumor size: observation 3 weeks", "quoted_text": "Female Balb/c^nu/nu mice (5-week-old, Doo-Yeol Biotech Co. Ltd. Korea) were subcutaneously implanted with Hep3B2.1-7 tumor block (1 mm^3) into the left back side of the mouse. […] Tumor size was monitored by measuring the longest (length) and shortest dimensions (width) once a day with a dial caliper, and tumor volume was calculated as width2×length×0.5.\nThen, tumor volumes were examined. […] Then, tumor volumes were examined."}, "[6]": {"tested_on": "RAW 264.7 cells", "assay": "Cell-permeability of FITC-labeled SOCS3 recombinant proteins (flow cytometry)", "type": "cell-based", "method": "as §2\nIn this regard, RAW 264.7 cells were cultured in a DMEM medium containing 10% fetal bovine serum (FBS, Hyclone, USA) and […] of 1% penicillin/streptomycin (Hyclone, USA).\nas §3"}, "[7]": {"tested_on": "SK-Hep-1 cells", "assay": "Transwell migration assay", "type": "cell-based, human", "settings": "24 hrs, compared with vehicle and non-permeable SOCS3", "method": "(§4) The lower surface of Transwell inserts (Costar) was coated with 0.1% gelatin, and the membranes were allowed to dry for 1 hr at room temperature. The Transwell inserts were assembled into a 24-well plate, and the lower chamber was filled with growth media containing 10% FBS and FGF2 (40 ng/ml). Cells were added to each upper chamber at a density of 5×10^5, and the plate was incubated at 37° C. in a 5% CO2 incubator for 24 hrs. Migrated cells were stained with 0.6% hematoxylin and 0.5% eosin and counted."}, "[8]": {"tested_on": "HepG2 cells", "assay": "Transwell migration assay", "type": "cell-based, human", "settings": "24 hrs, compared with vehicle and non-permeable SOCS3", "method": "as §4"}, "[9]": {"tested_on": "Huh-7 cells", "assay": "Transwell migration assay", "type": "cell-based, human", "settings": "24 hrs, compared with vehicle and non-permeable SOCS3", "method": "as §4"}}, "note": "Entries after “also recorded” stand apart in the source; their conditions may differ.", "data": [{"molecule": "HM165S3B: His-tagged recombinant protein of aMTD165, human SOCS3 and solubilization domain B; prototype improved cell-permeable SOCS3 (protein, Amino acid sequence of HM165S3B) MGSSHHHHHHSSGLVPRGSHMALAVPVALAIVPVTHSKFPAAGMETSRPLDTSLRLKTFSSKSEYQLVVNAVRKLQESGFYWSAVTGGEANLLLSAEPAGTFLIRDSSDQRHFFTLSVKTQSGTKNLRIQCEGGSFSLQSDPRSTQPVPRFDCVLKLVHHYMETPPPGAPSFPSPPTEPSSEVPEQPSAQPLPGSPPRRAYYIYSGGEKIPLVLSRPLSSNVATLQHLCRKTVNGHLDSYEKVTQLPGPIREFLDQYDAPLGSMAEQSDKDVKYYTLEEIQKHKDSKSTWVILHHKVYDLTKFLEEHPGGEEVLGEQAGGDATENFEDVGHSTDARELSKTYIIGELHPDDRSKIAKPSETL", "values": [{"measurement": "IFN-γ-induced phosphorylation of STAT3", "setting": "[1]; PANC-1, 10 ng/ml IFN-γ 15 min, 10 μM protein 2 hrs", "value": "suppressed IFN-γ-induced phosphorylation of STAT1 and STAT3"}, {"measurement": "IFN-γ-induced phosphorylation of STAT3", "setting": "[1]; PANC-1, 10 ng/ml IFN-γ 15 min, 1, 5, 10 μM protein 2 hrs", "value": "suppressed IFN-γ-induced phosphorylation of STAT3 in dose dependent manner"}, {"measurement": "intracellular delivery and localization", "setting": "[2]", "value": "localized to various extents in cytoplasm; also recorded: displayed more uniform cellular distribution"}, {"measurement": "tissue distribution / systemic delivery", "setting": "[3]; IP 600 μg/head FITC-labeled protein, sacrificed after 2 hrs, liver, kidney, spleen, lung, heart, brain", "value": "distributed to a variety of tissues (liver, kidney, spleen, lung, heart and, to a lesser extent, brain); also recorded: showed the highest systemic delivery of SOCS3 protein to the tissues; also recorded: exhibited superior cell-permeability"}, {"measurement": "systemic delivery to liver", "setting": "[3]; intraperitoneal injection", "value": "enhanced the systemic delivery to liver"}, {"measurement": "cell viability of non-cancer cells (Chang cell)", "setting": "[4]", "value": "not overly toxic to normal cells"}, {"measurement": "tumor growth inhibition at day 42", "setting": "[5]; IV 600 μg/head for 21 days, 3 weeks after termination", "value": 67, "unit": "%"}, {"measurement": "inhibition on the tumor size", "setting": "[5]; IV 25 mg/kg every day for 3 weeks", "value": 60, "unit": "%"}, {"measurement": "inhibition on the tumor size", "setting": "[5]; IV 50 mg/kg every day for 3 weeks", "value": 76, "unit": "%"}, {"measurement": "inhibition on the tumor size", "setting": "[5]; IV 50 mg/kg three times a week for 3 weeks", "value": 66, "unit": "%"}, {"measurement": "dose-dependency of cell-permeability", "setting": "[6]; 0.05 μM~10 μM, 1 hrs", "value": "dose-dependent"}, {"measurement": "cell-permeability (protein uptake)", "setting": "[6]; 10 μM FITC-labeled protein, 1 hr, 37° C.", "value": "efficiently entered the cells; also recorded: very efficient; also recorded: showed the highest cell-permeability; also recorded: high cell permeability"}, {"measurement": "time-dependency of cell-permeability", "setting": "[6]; 10 μM, 5~180 minutes", "value": "high level of cell-permeability of iCP-SOCS3 was observed only 5 minutes post-treatment and could be seen even at 180 minutes mark"}, {"measurement": "Transwell migration, SK-Hep-1", "setting": "[7]", "value": "significant inhibitory effect on their Transwell migration"}, {"measurement": "Transwell migration, HepG2", "setting": "[8]", "value": "significant inhibitory effect on their Transwell migration"}, {"measurement": "Transwell migration, Huh-7", "setting": "[9]", "value": "significant inhibitory effect on their Transwell migration"}]}]}
